# Data published in patent US20190302117.
# Key:
# [1] = system: Peptide 10: EDPIYVTLEGGKKK (version of peptide 2 used for the kinetic experiments)
# [2] = system: Peptide 11: DEAIYATVAGGKKK (version of peptide 5 used for the kinetic experiments)
Substance,2/5 kcat/Km ratio (peptide 2 against peptide 5) [1],Km [1] [µM],kcat [1] [s⁻¹],kcat/Km [1] [M⁻¹ s⁻¹],Km [2] [µM],kcat [2] [s⁻¹],kcat/Km [2] [M⁻¹ s⁻¹]
SYK as GST fusion protein,1.8,> 200,> 2e-07,1080,> 200,> 0.1,560
SRC as GST fusion protein,,,> 40,17500,,> 2,9500
